Biological target: T1, B18-FL (Vaccinia virus strain Western Reserve B18 protein with a FLAG epitope at the C terminus, sec (Vaccinia virus strain Western Reserve, UniProt P25213 20-351))
T1 construct: mature
Experiment: covalent crosslinking in solution, SDS-PAGE

B1: [^32P]-His-Strep-IFN-λ1-P (secreted human IFN-λ1 with N-terminal His-Strep tag and C-terminal phosphorylation site) (ligand)
chain: HHHHHHPDHWSHPQFEKGPVPTSKPTTTGKGCHIGRFKSLSPQELASFKKARDALEESLKLKNWSCSSPVFPGNWDLRLLQVRERPVALEAELALTLKVLEAAAGPALEDVLDQPLHTLHHILSQLQACIQPQPTAGPRPRGRLHHWLHRLQEAPKKESAGCLEASVTFNLFRLLTRDLKYVADGNLCLRTSTHPESTRRASVA
notes: mature; also called His-Strep-IFN-λ1J-P
  binding result: no binding
